Results reported in PMC4403245.

Target: GST-tagged KAHRP fragment K1D (Plasmodium falciparum) (UniProt P06719)
Assay: SPR

UniProt P06719, sequence (P06719 35-657): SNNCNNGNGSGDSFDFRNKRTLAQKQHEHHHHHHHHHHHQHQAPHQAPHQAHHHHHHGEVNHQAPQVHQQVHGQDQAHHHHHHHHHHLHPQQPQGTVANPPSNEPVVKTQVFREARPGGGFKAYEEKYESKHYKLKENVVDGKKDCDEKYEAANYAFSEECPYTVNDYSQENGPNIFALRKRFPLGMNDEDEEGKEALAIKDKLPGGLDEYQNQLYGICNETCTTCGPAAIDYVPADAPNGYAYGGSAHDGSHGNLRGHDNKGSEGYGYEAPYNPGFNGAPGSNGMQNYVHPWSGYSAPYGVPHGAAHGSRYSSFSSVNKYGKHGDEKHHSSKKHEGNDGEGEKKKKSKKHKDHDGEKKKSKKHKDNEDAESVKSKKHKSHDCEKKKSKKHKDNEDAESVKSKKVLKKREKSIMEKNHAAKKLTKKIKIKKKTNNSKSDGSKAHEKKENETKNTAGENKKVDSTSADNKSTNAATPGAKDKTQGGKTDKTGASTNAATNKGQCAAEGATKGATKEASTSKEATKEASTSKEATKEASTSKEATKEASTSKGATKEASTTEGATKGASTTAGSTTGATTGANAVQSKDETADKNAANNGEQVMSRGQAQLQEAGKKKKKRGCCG

Substance	Kd [nM]	koff [s⁻¹]	kon [M⁻¹ s⁻¹]
MBP-tagged D3 subdomain of the ankyrin R membrane-binding domain (from UniProt P16157 404-601) (domain or fragment)	46	0.00137	29900
MBP-tagged ankyrin R N-terminal 89 kDa membrane binding domain (from UniProt P16157 1-827) (domain or fragment)	38	0.00161	42800
